# Experimental data published in patent US20250043302A1, “MUTATED HYDROXYPHENYLPYRUVATE DIOXYGENASE POLYPEPTIDE, AND CODING GENE AND USE THEREOF” (BEIJING DABEINONG BIOTECHNOLOGY CO., LTD., priority 2021, published 2025).
# B1: OsHPPDm-F383W-02: nucleotide sequence encoding Oryza sativa HPPD with F383W; vector DBN11756 (nucleic acid)
# DNA: ATGCCACCCACGCCAACACCAACGGCCACCACTGGTGCCGTCTCGGCCGCGGCAGCGGCCGGTGAGAATGCTGGTTTCAGGCTAGTCGGCCACCGCCGCTTCGTGAGGGCAAATCCAAGATCTGATCGGTTCCAAGCACTTGCTTTCCACCATGTTGAGCTGTGGTGCGCTGACGCCGCTTCAGCTGCCGGGAGGTTTGCTTTTGCTTTAGGGGCGCCGCTCGCCGCAAGGAGTGATCTTTCCACCGGAAATTCTGCTCATGCTTCTCTTCTACTTAGATCAGCAAGTGTTGCATTTCTGTTCACTGCACCTTATGGCGGAGACCATGGTGTCGGGGCCGATGCTGCAACAACAGCTAGCATACCATCATTTTCTCCCGGCGCCGCAAGAAGATTTGCAGCCGATCATGGCCTGGCAGTTCATGCTGTGGCATTGAGGGTCGCCGACGCGGCTGATGCGTTCCGCGCCAGCGTGGCTGCTGGAGCTAGGCCGGCGTTCCAGCCTGCTGACCTTGGGGGTGGATTTGGATTGGCGGAGGTTGAATTATATGGTGATGTTGTGCTCCGTTTTGTTTCCCATCCAGATGGTGCTGATGCTCCATTTCTACCTGGATTTGAAGGGGTGTCAAACCCCGGCGCGGTGGATTATGGACTGCGTCGATTTGATCACGTGGTAGGTAATGTTCCTGAGTTGGCTCCCGTGGCGGCCTACATTTCAGGCTTTACTGGCTTCCATGAATTTGCCGAGTTCACCGCGGAAGATGTGGGAACTGCTGAAAGTGGATTGAACTCTGTTGTCCTGGCGAACAATGCAGAGACTGTATTGCTCCCCTTGAATGAGCCTGTGCACGGCACCAAACGGCGATCTCAAATTCAGACATACCTCGACCACCACGGGGGCCCTGGTGTTCAGCATATTGCTCTAGCCAGCGACGACGTACTGGGAACACTGAGGGAGATGAGAGCCCGTTCCGCCATGGGTGGCTTTGAGTTTCTGGCCCCTCCGCCGCCAAACTACTACGACGGCGTCAGACGGCGGGCGGGTGACGTCTTGAGTGAGGAGCAGATCAATGAATGTCAAGAACTTGGGGTTCTTGTTGATAGAGATGATCAAGGAGTGCTCCTCCAAATATTCACAAAACCTGTTGGCGACCGCCCGACCTTCTGGCTTGAAATGATCCAAAGGATCGGCTGCATGGAGAAGGATGAATCGGGCCAGGAGTACCAGAAGGGTGGGTGTGGTGGCTTTGGGAAGGGCAACTTCAGCGAGCTGTTCAAGTCAATTGAAGAATATGAAAAATCATTGGAGGCAAAGCAAGCTCCGACGGTGCAGGGAAGCTGA
# modifications: OsHPPDm-F383W-02 Nucleotide Sequence
# notes: vector DBN11756
# Tests used:
# Format in all cases: in vivo
# [1] = system: Arabidopsis thaliana T1 plants; assay: Mesotrione tolerance of transgenic Arabidopsis thaliana T1 plants (spray, bleached leaf area grade, damage score); set-up: Scores: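 damage score 0-100 computed as Σ(N×S)/(T×M)×100 over grades 0-3 with higher meaning more damage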; details: Arabidopsis thaliana T1 plants; for Grade 0 (classification and statistics of the grade of pesticide damage; number of plants) / Grade 1 (classification and statistics of the grade of pesticide damage; number of plants) / Grade 2 (classification and statistics of the grade of pesticide damage; number of plants) / Grade 3 (classification and statistics of the grade of pesticide damage; number of plants): 16 plants
# Outline: (§1)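 Damage was assessed by bleaching grade (0 none; 1 <50%; 2 >50%; 3 100% of leaf area) one week after spraying. Sprays on 18-day-old T1 and wild-type plants used field-rate multiples: topramezone 25–200, isoxaflutole 35–280, mesotrione 52.5–420 g ai/ha.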
# [2] = system: Arabidopsis thaliana T1 plants; assay: Isoxaflutole tolerance of transgenic Arabidopsis thaliana T1 plants (spray, bleached leaf area grade, damage score); set-up: Scores (pesticide damage): scale not given here; details: spray, Arabidopsis thaliana T1 plants; for Classification and statistics of the grade of pesticide damage: Grade 0 (number of plants) / Classification and statistics of the grade of pesticide damage: Grade 1 (number of plants) / Classification and statistics of the grade of pesticide damage: Grade 2 (number of plants) / Classification and statistics of the grade of pesticide damage: Grade 3 (number of plants): 16 plants
# Outline: as §1
# [3] = system: Arabidopsis thaliana T1 plants; assay: Topramezone tolerance of transgenic Arabidopsis thaliana T1 plants (spray, bleached leaf area grade, damage score); details: 7 DAT, Table 4; for Classification and statistics of the grade of pesticide damage: Grade 0 / Classification and statistics of the grade of pesticide damage: Grade 1 / Classification and statistics of the grade of pesticide damage: Grade 2 / Classification and statistics of the grade of pesticide damage: Grade 3: number of plants; for Scores: pesticide damage score 0-100
# Outline: as §1
# [4] = isoxaflutole 35 g ai/ha (0.5x field concentration)
# [5] = isoxaflutole 70 g ai/ha (1x field concentration)
molecule,measurement,setting,value
B1,Resistance evaluation,[1]; mesotrione 52.5 g ai/ha,Non-resistant
same,Scores,[1]; mesotrione 52.5 g ai/ha,85
same,Grade 0 (classification and statistics of the grade of pesticide damage; number of plants),[1]; mesotrione 52.5 g ai/ha,0
same,Grade 1 (classification and statistics of the grade of pesticide damage; number of plants),[1]; mesotrione 52.5 g ai/ha,0
same,Grade 2 (classification and statistics of the grade of pesticide damage; number of plants),[1]; mesotrione 52.5 g ai/ha,7
same,Grade 3 (classification and statistics of the grade of pesticide damage; number of plants),[1]; mesotrione 52.5 g ai/ha,9
same,Resistance evaluation,[1]; mesotrione 105 g ai/ha,Non-resistant
same,Scores,[1]; mesotrione 105 g ai/ha,100
same,Grade 0 (classification and statistics of the grade of pesticide damage; number of plants),[1]; mesotrione 105 g ai/ha,0
same,Grade 1 (classification and statistics of the grade of pesticide damage; number of plants),[1]; mesotrione 105 g ai/ha,0
same,Grade 2 (classification and statistics of the grade of pesticide damage; number of plants),[1]; mesotrione 105 g ai/ha,0
same,Grade 3 (classification and statistics of the grade of pesticide damage; number of plants),[1]; mesotrione 105 g ai/ha,16
same,Resistance evaluation,[2]; [4],Non-resistant
same,Scores (pesticide damage),[2]; [4],94
same,Classification and statistics of the grade of pesticide damage: Grade 0 (number of plants),[2]; [4],0
same,Classification and statistics of the grade of pesticide damage: Grade 1 (number of plants),[2]; [4],0
same,Classification and statistics of the grade of pesticide damage: Grade 2 (number of plants),[2]; [4],3
same,Classification and statistics of the grade of pesticide damage: Grade 3 (number of plants),[2]; [4],13
same,Resistance evaluation,[2]; [5],Non-resistant
same,Scores (pesticide damage),[2]; [5],100
same,Classification and statistics of the grade of pesticide damage: Grade 0 (number of plants),[2]; [5],0
same,Classification and statistics of the grade of pesticide damage: Grade 1 (number of plants),[2]; [5],0
same,Classification and statistics of the grade of pesticide damage: Grade 2 (number of plants),[2]; [5],0
same,Classification and statistics of the grade of pesticide damage: Grade 3 (number of plants),[2]; [5],16
same,Classification and statistics of the grade of pesticide damage: Grade 0,[3]; topramezone 25 g ai/ha (1×),0
same,Classification and statistics of the grade of pesticide damage: Grade 1,[3]; topramezone 25 g ai/ha (1×),3
same,Classification and statistics of the grade of pesticide damage: Grade 2,[3]; topramezone 25 g ai/ha (1×),9
same,Classification and statistics of the grade of pesticide damage: Grade 3,[3]; topramezone 25 g ai/ha (1×),4
same,Classification and statistics of the grade of pesticide damage: Grade 0,[3]; topramezone 100 g ai/ha (4×),0
same,Classification and statistics of the grade of pesticide damage: Grade 1,[3]; topramezone 100 g ai/ha (4×),0
same,Classification and statistics of the grade of pesticide damage: Grade 2,[3]; topramezone 100 g ai/ha (4×),0
same,Classification and statistics of the grade of pesticide damage: Grade 3,[3]; topramezone 100 g ai/ha (4×),16
same,Scores,[3]; topramezone 25 g ai/ha (1×),69
same,Scores,[3]; topramezone 100 g ai/ha (4×),100
same,Resistance evaluation,[3]; topramezone 25 g ai/ha (1×),non-resistant (non-resistant plants (scores 68-100))
same,Resistance evaluation,[3]; topramezone 100 g ai/ha (4×),non-resistant (non-resistant plants (scores 68-100))
